The nature of data set [1]: Body weight of mice given different dosages of antibody (Example 3). The format is in vivo, BALB/c nude mice. Conditions: 40, 70, 100 mg/kg i.p. 3 times a week for 2 weeks; FIG. 6. On the procedure:
(§1) According to Example 2, different dosage of antibodies were administered to tumor-forming mice. The administration manners are listed as follows:
(§2) 1. AB1, administered with the antibody against CLD18A2 prepared in Example 1, at a dosage of 40 mg/kg, intraperitoneal injection, 3 times a week for 2 weeks.
(§3) 2. AB2, administered with the antibody against CLD18A2 prepared in Example 1, at a dosage of 70 mg/kg, intraperitoneal injection, 3 times a week for 2 weeks.
(§4) 3. AB3, administered with the antibody against CLD18A2 prepared in Example 1, at a dosage of 100 mg/kg, intraperitoneal injection, 3 times a week for 2 weeks.

For data set [2], the system named is human gastric cancer PDX-GA0006 model. The experiment in a line: In vivo efficacy experiment of subcutaneous transplanted tumor in mouse PDX model (Example 2). Also on record: species or system BALB/c nude mice. Conditions: tumors weighed after euthanasia on D51; Ab 40 mg/kg i.p. 3 times a week; epirubicin 1.25 mg/kg, oxaliplatin 3.25 mg/kg, fluorouracil 56.25 mg/kg once a week. The text has this:
A 2×2×2 mm gastric cancer PDX tumor mass was inoculated into BALB/c mice (the day of inoculation was DO). On D27 of subcutaneous inoculation, the tumor volume was 128 mm^3 on average, thereby obtaining the human gastric cancer PDX-GA0006 model, or abbreviated as PDX model. The tumor-forming mice were randomly divided into 6 groups, namely solvent group, antibody group (Ab group), EOF group, EOF+Ab group, OF group, OF+Ab group. During the experiment, the general clinical symptoms of the animals were observed, and the body weight and tumor diameter were measured twice a week. On D51, the mice were euthanized. The manners of administration are listed as follows:
Solvent group: intraperitoneal injection, 3 times a week.
Ab group: antibody against CLD18A2 prepared in Example 1, 40 mg/kg, intraperitoneal injection, 3 times a week.
EOF group: a combination of epirubicin hydrochloride for intraperitoneal injection (1.25 mg/kg)+oxaliplatin for injection (3.25 mg/kg)+fluorouracil injection (56.25 mg/kg), once a week; solvent, intraperitoneal injection, 3 times a week.
EOF+Ab group: EOF (epirubicin hydrochloride (1.25 mg/kg)+oxaliplatin for injection (3.25 mg/kg)+fluorouracil injection (56.25 mg/kg)), once a week, the antibody against CLD18A2 (40 mg/kg), 3 times a week. […]

Data set [3] has the same test system. The data set can be described thus: Analysis of the administration amount of antibody in tumor-forming PDX mice (Example 3). It counts as in vivo, BALB/c nude mice. As to conditions: AB3 group: 100 mg/kg i.p. 3 times a week for 2 weeks, versus 40 and 70 mg/kg; FIG. 5. On the procedure:
as §1, §2, §3, §4

B1: Ab: humanized antibody targeting CLD18A2, heavy chain variable region SEQ ID NO: 15, light chain variable region SEQ ID NO: 13 (antibody, V domains shown)
VH: QVQLQESGPGLIKPSQTLSLTCTVSGGSISSGYNWHWIRQPPGKGLEWIGYIHYTGSTNYNPALRSRVTISVDTSKNQFSLKLSSVTAADTAIYYCARIYNGNSFPYWGQGTTVTVSS
VL: DIVMTQSPDSLAVSLGERATINCKSSQSLFNSGNQKNYLTWYQQKPGQPPKLLIYWASTRESGVPDRFSGSGSGTDFTLTISSLQAEDVAVYYCQNAYSFPYTFGGGTKLEIKR
For B1, the “change in body weight of mice” value in data set [1] is recorded as “no significant change”. In addition, the “tumor inhibition rate compared with the solvent group (tumor weight)” value in data set [2] was determined as 1.21%. In data set [3], the “anti-tumor effects (increase in tumor volume) at different dosages” value is listed as “better anti-tumor effects”.
